Results published in patent US11110182B2, “Multifunctional RNA nanoparticles and methods for treating cancer and therapeutic resistant cancer” (University of Cincinnati, priority 2016, dated 2021).

Key:
MED1 = MED1 protein level by western blots in MCF-7/HER2 cells; assay type: cell-based, human; conditions: MCF-7/HER2, 10 μg/mL, 48 h
Description: (§1) FIGS. 10A-10D. Evidence that pRNA-HER2apt-siMED1 nanoparticles silenced MED1 expression and sensitized two other HER2+ breast cancer cells to tamoxifen treatment. FIG. 10A) Two HER2-overexpressing breast cancer cell lines MCF7/TAM and FIG. 10B) MCF7/HER2, were treated with 10 μg/mL pRNA-HER2apt-siMED1 nanoparticles or scramble control for 48 h, and then MED1 protein level was determined using western blots. FIG. 10C) MCF7/TAM and FIG. 10D) MCF7/HER2 cells were treated with 10 μg/mL pRNA nanoparticles and/or 1 μM tamoxifen (TAM) as indicated for 48 h, and then cell growth was determined using an MTT assay.
Next, the ability of pRNA-HER2apt-siMED1 nanoparticles to silence the expression of MED1 in BT474 and MDA-MB-231 human breast cancer cells was examined. Using real-time PCR analyses, a significant depletion of nearly 70% of MED1 mRNA in BT474 cells after pRNA-HER2apt-siMED1 but not pRNA-HER2apt^mut-siMED1 treatment was found (FIG. 3A).

[1] = Hydrodynamic size by dynamic light scattering (DLS); assay type: physicochemical
Description: (§2) Cell culture. Human breast cancer luciferase-overexpressing BT474 and MDA-MB-231 cells were maintained in DMEM medium (Hyclone, Thermo Scientific) supplemented with 10% fetal bovine serum (FBS, Sigma) and 1% penicillin/streptomycin (Corning) at 37° C. in a humidified atmosphere with 5% CO2.^53 • Generation of pRNA nanoparticles. The two strands of pRNA were synthesized with the DNA templates, which were amplified with overlapping primers (Sigma) by PCR methods, using a T7 promoter-controlled in vitro RNA transcription system as previously described^33 (Table 1). […] The hydrodynamic diameter and Tm value of pRNA nanoparticles were determined using dynamic light scattering and TGGE assay, respectively, as previously described.^54 The AFM imaging of the pRNA nanoparticles was performed at the University of Nebraska Medical Center imaging facility as previously reported.^55 Briefly, the pRNA nanoparticles (5 μL) were deposited on APS modified mica ^56 for a total of 2 min of incubation time. […] After washing three times with PBS, the cellular uptake of pRNAs was determined using a BD LSRFortessa™ flow cytometer. • Real-time PCR. […] The expression of MED 1, TFF1, c-Myc, cyclinD1 and MMP-9 was analyzed using GAPDH as the internal reference. • Western blot analyses. […]

[2] = Tm value by temperature gradient gel electrophoresis (TGGE) assay; assay type: physicochemical
Description: as §2

MCF-7/HER2 cells = test: MTT assay, MCF-7/HER2 cells; assay type: cell-based, human; conditions: MCF-7/HER2, 10 μg/mL pRNA and 1 μM tamoxifen, 48 h
Description: as §1
Since MED1 has recently been reported to play key roles in tamoxifen resistance of human breast cancer, the combinational effects of pRNA-HER2apt-siMED1 nanoparticles with tamoxifen on the growth and metastatic potential of BT474 cells was examined. […] The combinational effect of pRNA-HER2apt-siMED1 nanoparticles with tamoxifen treatment on two other HER2-overexpressing breast cancer cells MCF-7/HER2 and MCF-7/TAM were also confirmed (FIGS. 10C-D).

recombinant Dicer enzyme = target: T1, recombinant Dicer enzyme (Homo sapiens, UniProt Q9UPY3); test: Digestion with recombinant Dicer enzyme, siRNA release; assay type: biochemical; conditions: 1 μg pRNA nanoparticles, 37° C., 12 h
T1 construct: purchased Genlantis
T1 sequence (Q9UPY3 whole entry): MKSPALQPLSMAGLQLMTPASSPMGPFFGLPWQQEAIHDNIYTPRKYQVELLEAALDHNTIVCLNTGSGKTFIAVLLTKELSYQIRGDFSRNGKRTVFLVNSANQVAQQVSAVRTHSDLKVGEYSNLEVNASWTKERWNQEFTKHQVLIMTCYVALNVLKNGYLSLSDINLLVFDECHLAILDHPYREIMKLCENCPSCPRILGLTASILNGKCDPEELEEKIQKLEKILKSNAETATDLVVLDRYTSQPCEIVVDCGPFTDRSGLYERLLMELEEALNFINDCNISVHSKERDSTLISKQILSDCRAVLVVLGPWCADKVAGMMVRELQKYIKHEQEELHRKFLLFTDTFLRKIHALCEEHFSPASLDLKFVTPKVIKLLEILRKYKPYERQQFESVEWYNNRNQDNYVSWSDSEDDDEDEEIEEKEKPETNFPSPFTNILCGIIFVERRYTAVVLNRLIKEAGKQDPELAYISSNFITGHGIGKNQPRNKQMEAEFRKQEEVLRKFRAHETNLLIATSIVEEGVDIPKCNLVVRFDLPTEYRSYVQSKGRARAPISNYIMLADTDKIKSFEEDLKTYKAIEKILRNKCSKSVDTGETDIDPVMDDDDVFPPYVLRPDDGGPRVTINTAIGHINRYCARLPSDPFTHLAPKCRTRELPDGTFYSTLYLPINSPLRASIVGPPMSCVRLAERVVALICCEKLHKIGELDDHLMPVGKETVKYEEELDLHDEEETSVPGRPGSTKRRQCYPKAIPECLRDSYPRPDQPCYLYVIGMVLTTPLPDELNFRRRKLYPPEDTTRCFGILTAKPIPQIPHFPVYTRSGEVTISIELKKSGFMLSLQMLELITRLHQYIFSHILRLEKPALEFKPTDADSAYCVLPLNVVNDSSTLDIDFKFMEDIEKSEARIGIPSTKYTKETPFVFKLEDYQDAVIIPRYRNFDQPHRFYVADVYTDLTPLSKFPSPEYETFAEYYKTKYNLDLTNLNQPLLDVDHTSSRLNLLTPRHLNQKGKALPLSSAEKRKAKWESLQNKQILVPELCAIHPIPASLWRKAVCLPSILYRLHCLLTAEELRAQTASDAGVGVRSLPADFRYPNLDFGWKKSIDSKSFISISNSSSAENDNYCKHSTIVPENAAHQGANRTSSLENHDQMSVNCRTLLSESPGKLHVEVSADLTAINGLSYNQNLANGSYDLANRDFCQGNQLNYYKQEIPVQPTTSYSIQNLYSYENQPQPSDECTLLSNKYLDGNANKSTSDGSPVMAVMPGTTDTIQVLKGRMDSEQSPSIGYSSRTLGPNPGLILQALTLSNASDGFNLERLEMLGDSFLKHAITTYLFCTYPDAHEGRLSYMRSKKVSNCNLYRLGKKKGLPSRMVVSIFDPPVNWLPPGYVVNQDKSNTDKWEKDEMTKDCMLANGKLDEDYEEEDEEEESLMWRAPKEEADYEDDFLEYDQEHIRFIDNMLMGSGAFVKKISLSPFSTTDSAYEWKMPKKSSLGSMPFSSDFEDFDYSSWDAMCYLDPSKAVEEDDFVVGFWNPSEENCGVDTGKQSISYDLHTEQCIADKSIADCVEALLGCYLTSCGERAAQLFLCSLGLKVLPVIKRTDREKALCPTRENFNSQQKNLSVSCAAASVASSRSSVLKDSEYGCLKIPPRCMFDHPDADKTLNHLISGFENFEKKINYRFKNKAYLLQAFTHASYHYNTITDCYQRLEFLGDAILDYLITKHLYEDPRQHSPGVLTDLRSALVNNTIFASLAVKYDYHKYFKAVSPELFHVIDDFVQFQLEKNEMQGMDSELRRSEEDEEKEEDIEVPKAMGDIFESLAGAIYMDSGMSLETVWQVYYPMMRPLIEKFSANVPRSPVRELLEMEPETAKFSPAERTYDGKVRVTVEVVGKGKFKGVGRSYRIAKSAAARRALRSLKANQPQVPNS
Description: FIG. 7A) Six HER2-targeting RNA aptamers were selected from previous literatures, and their secondary structures were predicted using Srna-fold software. FIG. 7B) Six p2 strands containing the six different HER2 RNA aptamers were synthesized and annealed with the same p1 strand to generate six different pRNA-HER2apt-MED1 siRNA nanoparticles, respectively, followed by examination using 8% native PAGE gel electrophoresis. FIG. 7C) BT474 cells were treated with above pRNA nanoparticles for 48 h, and then MED1 protein level was determined by western blotting. […] FIG. 7D) 1 μg pRNA nanoparticles were incubated with recombinant Dicer enzyme (Genlantis) at 37° C. for 12 h, the product was separated by 8% native PAGE gel.
Next, the pRNA nanoparticles were digested with recombinant Dicer enzyme (Genlantis) ^34 to confirm the release of siRNAs as indicated by the generation of 21-23 bp small RNAs after digestion (FIG. 7D).

B1: pRNA-HER2apt-siMED1: 3-WJ pRNA nanoparticle bearing a HER2-targeting RNA aptamer and two different MED1 siRNAs; strands p1 SEQ ID NO: 3, p2 SEQ ID NO: 4 (nucleic acid)
chain 1: GGACAGUGAAAGUGAGUCAAAGGAUCAAUCAUGGCCAAAGAUGUUACUUUGAGAGCCUU
chain 2: GGCUCUCAAAGUAACAUCUAAGGCCAUGUGUAUGUGGGGGGAGGACGAUGCGGUCUGCUGUGCUUGAUAUGCCCCAGACGACUCGCCCCCCACAUACUUUGUUGAUCCAAUGACUCACUUUCACUGUCCUU
modifications: 2'-F modification; third strand may lack entry; pRNA-HER2apt-siMED1, p1; pRNA-HER2apt-siMED1, p2
MED1
  MED1 silencing: confirmed
[1]
  hydrodynamic size: 8.68±1.87 nm
[2]
  Tm value: 78±2 °C
MCF-7/HER2 cells
  combinational effect with tamoxifen on cell growth: confirmed
Recombinant Dicer enzyme
  small RNAs generated after Dicer digestion (release of siRNAs): 21-23 bp
